Article PMC5099578, “A structural and functional study on the 2-C-methyl-D-erythritol-4-phosphate cytidyltransferase (IspD) from Bacillus subtilis” (Scientific Reports, 2016)

Target: the molecule itself
Assay: crystal structure; apo form I, space group P2_(1)2_(1)2_(1), crystallization condition I, hanging drop at 18 °C; two molecules in the asymmetric unit; 1.80 Å

B1: 2-C-methyl-D-erythritol-4-phosphate cytidyltransferase (IspD) from Bacillus subtilis (enzyme, Bacillus subtilis 168)
chain: MSYDVVIPAAGQGKRMKAGRNKLFIELKGDPVIIHTLRVFDSHRQCDKIILVINEQEREHFQQLLSDYPFQTSIELVAGGDERQHSVYKGLKAVKQEKIVLVHDGARPFIKHEQIDELIAEAEQTGAAILAVPVKDTIKRVQDLQVSETIERSSLWAVQTPQAFRLSLLMKAHAEAERKGFLGTDDASLVEQMEGGSVRVVEGSYTNIKLTTPDDLTSAEAIMESESGNKHV
notes: IspD of Bacillus subtilis 168 (DSM 23778); the IspD gene amplified from genomic DNA as a 699 bp product; 232 residues built in apo form I (residues numbered up to 232); 699 bp fits 232 codons and a stop codon, so probably the whole gene; Cloned BamHI/XhoI in pGEX-6P-1; GST removed by PreScission protease, so a few vector residues may be left at the N-terminus (surmised); also called BsIspD; …
In the case of B1, the “stoichiometry N” value is reported as 2.
